Results reported in patent US20200347144A1 (SHANGHAI HYAMAB BIOTECH, published 2020).

Columns and labels:
[1] = target: T1, monkey 4-1BB on CHOK1 cells (monkey); assay: FACS, CHOK1-c4-1BB cells; Ab 0.4 ug/ml
T1 construct: whole, on cells; also called CHOK1-c4-1BB
Description: (§1) The pIRES plasmid carrying the full-length gene of monkey-derived […] (the preparation method is the same as the preparation method of the pCpC vector carrying the human-derived IgG Fc fragment (hFc) in “Preparation of immunogen A” of the step (1) in Example 1, in which the database accession number of the amino acid sequence of the extracellular region of monkey 4-1BB protein (Phe19-Thr239) is G7PSE7) was transfected into CHOK1 cell line to obtain CHOK1 stable transfected cell line containing monkey 4-1BB (herein referred to as CHOK1-c4-1BB stable cell line). The CHOK1-h4-1BB stable cell line and the CHOK1-c4-1BB stable cell line were expanded and cultivated to 90% confluence in T-75 cell culture flasks. The medium was exhausted, and washed twice with HBSS buffer (Hanks Balanced Salt Solution, purchased from Invitrogen), and then the cells were treated and collected with enzyme-free cell dissociation solution (Versene solution, purchased from Life Technology). The cells were washed twice with HBSS buffer, and after cell counting, the cells were diluted with HBSS buffer to 2×10⁶ cells per ml, and 1% goat serum blocking solution was added, the percentage being the mass percentage. It was incubated on ice for 30 minutes, and then washed twice with HBSS buffer by centrifugation. The collected cells were suspended in FACS buffer (HBSS containing 1% BSA, the percentage was the mass percentage) to 2×10⁶ cells/mL, and 100 μl per well was added to a 96-well FACS reaction plate. The purified 4-1BB antibody test sample obtained in Example 2 was added, 100 microliters per well and incubated on ice for 2 hours. […] It was washed three times with FACS buffer by centrifugation, and 100 μl of fixative [4% (v/v) paraformaldehyde] per well was added to suspend cells, and washed twice with FACS buffer after 10 minutes by centrifugation. The cells were suspended with 100 microliters of FACS buffer, and the results were detected and analyzed with FACS (FACS Calibur, purchased from BD).

[2] = target: T2, human 4-1BB, full length, on transfected cells (human, UniProt Q07011 24-255); assay: FACS, CHOK1-h4-1BB cells; Ab 10 ug/ml
T2 construct: whole, on cells; also called CHOK1-h4-1BB
T2 sequence (Q07011 24-255): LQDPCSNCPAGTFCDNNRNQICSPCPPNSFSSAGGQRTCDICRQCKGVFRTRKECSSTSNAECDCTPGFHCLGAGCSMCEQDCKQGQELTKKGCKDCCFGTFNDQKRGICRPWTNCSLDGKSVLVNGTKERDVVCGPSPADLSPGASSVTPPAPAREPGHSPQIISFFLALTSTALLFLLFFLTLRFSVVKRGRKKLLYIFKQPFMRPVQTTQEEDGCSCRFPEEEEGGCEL
Description: as §1

[3] = target: T1, monkey 4-1BB on CHOK1 cells; assay: FACS, CHOK1-c4-1BB cells; Ab 10 ug/ml
Description: as §1

[4] = target: T3, hFc-tagged human 4-1BB extracellular domain protein (4-1BB-hFc) (human, UniProt Q07011 24-186, limits assumed); assay: ELISA, coated human 4-1BB-hFc; Ab 0.016 ug/ml
T3 construct: also called immunogen A; 4-1BB^ECD-hFc; not shown: human IgG Fc fragment (hFc) of the pCpC vector
Experimental: (§2) The purified immunogen A (4-1BB-hFc), monkey 4-1BB-his, and mouse 4-1BB-his obtained in Example 1 [for the preparation method, see step 1 of Example 1, preparation of immunogen A], of which the extracellular domain of monkey-derived 4-1BB protein (purchased from ACRO biosystems), the extracellular domain of mouse 4-1BB protein (purchased from sino biological) or other immune detection point proteins respectively were diluted with PBS to a final concentration of 1.0 μg/mL, then added with […] per well to 96-well ELISA plate. It was sealed with plastic film and incubated at 4° C. overnight. The next day, the plate was washed twice with the plate-washing solution [PBS containing 0.01% (v/v) Tween20] and blocking solution [PBS containing 0.01% (v/v) Tween 20 and 1% (v/v) BSA] was added and blocked at room temperature for 2 hours. The blocking solution was discarded and 100 μl of the purified 4-1BB antibody obtained in Example 2 was added per well. After incubated at 37° C. for 2 hours, the plate was washed 3 times with a plate-washing solution [PBS containing 0.01% (v/v) Tween20]. A secondary antibody (purchased from Sigma) labeled with HRP (horseradish peroxidase) was added, and after incubated at 37° C. for 2 hours, the plate was washed 3 times with a plate-washing solution [PBS containing 0.01% (v/v) Tween20]. 100 μl of TMB substrate was added per well. After incubated for 30 minutes at room temperature, 100 μl of stop buffer (1.0N HCl) was added per well. The A450 nm values were read using an ELISA plate reader (SpectraMax 384plus, Molecular Device).

[5] = target: T1, monkey 4-1BB on CHOK1 cells; assay: FACS, CHOK1-c4-1BB cells; Ab 0.00013 ug/ml
Description: as §1

[6] = target: T2, human 4-1BB, full length, on …; assay: FACS, CHOK1-h4-1BB cells; Ab 0.00013 ug/ml
Description: as §1

[7] = target: T3, hFc-tagged human 4-1BB extracellular …; assay: ELISA, coated human 4-1BB-hFc; Ab 0.4 ug/ml
Experimental: as §2

[8] = target: T2, human 4-1BB, full length, on …; assay: FACS, CHOK1-h4-1BB cells; Ab 0.016 ug/ml
Description: as §1

[9] = target: T3, hFc-tagged human 4-1BB extracellular …; assay: ELISA, coated human 4-1BB-hFc; Ab 0.08 ug/ml
Experimental: as §2

[10] = target: T3, hFc-tagged human 4-1BB extracellular …; assay: ELISA: human 4-1BB-hFc coated at 1.0 µg/mL, antibody titrated, HRP secondary antibody, OD450
Experimental: as §2

[11] = target: T3, hFc-tagged human 4-1BB extracellular …; assay: ELISA, coated human 4-1BB-hFc; Ab 2 ug/ml
Experimental: as §2

[12] = target: T1, monkey 4-1BB on CHOK1 cells; assay: FACS, CHOK1-c4-1BB cells; Ab 0.08 ug/ml
Description: as §1

[13] = target: T3, hFc-tagged human 4-1BB extracellular …; assay: ELISA, coated human 4-1BB-hFc; Ab 10 ug/ml
Experimental: as §2

[14] = target: T2, human 4-1BB, full length, on …; assay: FACS, CHOK1-h4-1BB cells; Ab 0.0032 ug/ml
Description: as §1

Row | average fluorescence intensity [1] [MFI] | average fluorescence intensity [2] [MFI] | average fluorescence intensity [3] [MFI] | OD450 nm [4] [OD450 nm] | average fluorescence intensity [5] [MFI] | average fluorescence intensity [6] [MFI] | OD450 nm [7] [OD450 nm] | average fluorescence intensity [8] [MFI] | OD450 nm [9] [OD450 nm] | EC50 (read off the curve) [10] [µg/mL] | OD450 nm [11] [OD450 nm] | average fluorescence intensity [12] [MFI] | OD450 nm [13] [OD450 nm] | average fluorescence intensity [14] [MFI] | Binder
1 | 64.3 | 827 | 126 | 1.29 | 2.5 | 3.9 | 2.79 | 67.2 | 2.64 | ~0.02 | 2.8 | 25.4 | 2.8 | 19.4 | 259G10E11 (antibody, V domains shown) VH: QVQLVESGGGVVQPGRSLRLSCAASGFTFSSYGMHWVRQAPGKGLEWVAVIWYDGSNKYYADSVKGRFTISRDNSKNTLYLQMNSLRAEDTAVYYCARGPYLYSSGWYDYYYYGMDVWGQGTTVTVSS VL: not shown
2 | 373 | 769 | 746 | 1.48 | 2.7 | 2.6 | 3.56 | 52.7 | 3.29 | ~0.02 | 3.54 | 118 | 3.5 | 14.8 | 182A5B3 (antibody, V domains shown) VH: QVQLVQSGAEVKKPGASVKVSCKASGYTFTSYDINWVRQATGQGLEWMGWMNPNSGNTGYVQKFQGRVTMTRNTSISTAYMELSSLRSEDTAVYYCARETGPFDYWGQGTLVTVSS VL: not shown
3 | 159 | 489 | 342 | 1.65 | 17.6 | 13.8 | 3.44 | 46.9 | 3.18 | ~0.02 | 3.44 | 47 | 3.43 | 13 | 172E3E3 (antibody, V domains shown) VH: QVQLQESGPGLVKPSGTLSLTCAVSGGSISSSNWWSWVRQPPGKGLEWIGEIYHSGSTNYNPSLKSRVTISVDKSKNQLSLNLSSVTAADTAVYYCARQGGVAGTLYWYFDLWGRGTLVTVSS VL: DIVMTQSPLSLPVTPGEPASISCRSSQGLLHSNGYNYLDWYLQKPGQSPQLLIYLGSNRASGVPDRFIGSGSGTDFTLKIRRVEAEDVGVYYCMQVLQTPWTFGQGTKVEIK
4 | 56.5 | 1780 | 124 | 1.23 | 2.4 | 4 | 2.75 | 85.6 | 2.59 | ~0.02 | 2.74 | 21.1 | 2.75 | 22.9 | 263A11E3 (antibody, V domains shown) VH: QVQLQESGPGLVKPSETLSLTCAVSGYSISSGYYWGWIRQPPGKGLEWIGSIYHSGSTSYNPSLRSRVTISVDTSKNQFSLKLSSVTAADTAVYYCARDAGGFDYWGQGTLVTVSS VL: not shown

The next lines start with the binder.

Row | Binder | average fluorescence intensity [1] [MFI] | average fluorescence intensity [2] [MFI] | average fluorescence intensity [3] [MFI] | OD450 nm [4] [OD450 nm] | average fluorescence intensity [5] [MFI] | average fluorescence intensity [6] [MFI] | OD450 nm [7] [OD450 nm] | average fluorescence intensity [8] [MFI] | OD450 nm [9] [OD450 nm] | EC50 (read off the curve) [10] [µg/mL] | OD450 nm [11] [OD450 nm] | average fluorescence intensity [12] [MFI] | OD450 nm [13] [OD450 nm] | average fluorescence intensity [14] [MFI]
5 | 258F5A8 (antibody, V domains shown) VH: QVQLVESGGGVVQPGRSLRLSCAASGFTFSSYGMHWVRQAPGKGLEWVAVIWYDGSNKYYADSVKGRFNISRDNSKNTLYLQMNSLRAEDTAVYYCARGPYLYSSGWYDYYYYGMDVWGQGTTVTVSS VL: not shown | 71.4 | 835 | 131 | 1.06 | 2.5 | 4.1 | 2.69 | 68 | 2.47 | ~0.02 | 2.67 | 26.6 | 2.68 | 21.1
6 | 11H10C9 (antibody, V domains shown) VH: QVQLVESGGGVVQPGRSLRLSCAASGFTFSSYAMHWVRQAPGKGLEWVAIIWYDGSNQYYADSVKGRFTISRDNSMNTLYLQMNSLRAEDTAVYYCARVEQWLVSYFDFWGQGTLVTVSS VL: EIVMTQSPATLSVSPGERATLSCRASQSVSSNLAWYQQKPGQVPRLLIYGASTRATGIPARFSGSGSGTEFTLTISSLQSEDFAVYYCQQYNNWPTFGGGTKVEIK | 298 | 498 | 736 | 1.55 | 3 | 3.5 | 3.58 | 58.7 | 3.27 | ~0.02 | 3.59 | 82.6 | 3.55 | 18.3
7 | 119B6G5 (antibody, V domains shown) VH: EVQLLESGGGLVQPGGSLRLSCAASGFTFSNYAMSWVRQGPGKGLEWVSTIIGSGDSTYYTDSVKGRFTISRDNSKNTLFLQMNSLRAEDTAVYYCARDKSGWYYFDYWGQGTLVTVSS VL: DIQMTQSPSTLSASVGDRVTITCRASQSISNWLAWYQQKPGKAPKLLIYKASSLESGVPSRFSGSGSGTEFTLTISSLQPDDFATYYCQQYNDYFPITFGQGTRLEIK | 944 | 1080 | 1470 | 1.25 | 3.2 | 2.6 | 2.77 | 49.1 | 2.62 | ~0.02 | 2.76 | 303 | 2.78 | 17.8
